Reference: patent publication US6852509 (dated 2005)
One block for each binder: values may come before it.

Molecular target: T1, wild-type p53 protein (UniProt P04637 1-393)
T1 construct: also called purified p53
Assay: ELISA on plates coated with purified p53
From the text: The two IgGs are then visualized using a secondary anti-IgG antibody which is coupled to alkaline phosphatase. The biotinylated serum is visualized using extravidin which is coupled to alkaline phosphatase. The ScFvs are visualized using the anti-myc antibody 9E10 and then using an anti-IgG antibody which is coupled to alkaline phosphatase.

T1 sequence (P04637 whole entry): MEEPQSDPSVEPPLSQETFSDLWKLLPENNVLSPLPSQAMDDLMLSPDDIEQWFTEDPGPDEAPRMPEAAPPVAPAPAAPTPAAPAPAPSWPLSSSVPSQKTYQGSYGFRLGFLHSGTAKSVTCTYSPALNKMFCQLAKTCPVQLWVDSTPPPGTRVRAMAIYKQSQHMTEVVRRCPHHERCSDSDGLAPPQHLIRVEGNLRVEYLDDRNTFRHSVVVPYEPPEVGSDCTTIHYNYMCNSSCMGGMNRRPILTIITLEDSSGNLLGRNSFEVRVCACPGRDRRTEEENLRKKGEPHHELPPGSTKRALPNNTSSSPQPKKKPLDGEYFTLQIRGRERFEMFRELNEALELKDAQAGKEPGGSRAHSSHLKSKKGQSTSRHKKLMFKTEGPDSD

binding result: binds
B1: ScFv 421-myc (scFv)
scFv: QVQLQQSGAELVRSGASVKLSCTASGFNIKDYYMHWVKQRPEQGLEWIGWIDPENGDTEYAPKFQGKATMTADTSSNTAYLQLSSLASEDTAVYYCNFYGDALDYWGQGTTVTVSSGGGGSGGGGSGGGGSDVLMTQTPLTLSVTIGQPASISCKSSQSLLDSDGKTYLNWLLQRPGQSPKRLIYLVSKLDSGVPDRFTGSGSGTDFTLKINRVEAEDLGVYYCWQGTHSPLTFGAGTKLEIK
notes: Produced from bacterial periplasm; not shown: myc tag fused for detection

binding result: binds
B2: ScFv 11D3-myc (scFv)
scFv: QVKLQESGAELVRSGASVNLSCTASGFNIKDYYMHWVKQRPEEGLEWIGYIDPESGETEYAPNFQGKATVTADTSSNTAYLHLSSLTSEDTTVYYCNAVIYYEYDGYALDYWGQGTTVTVSSGGGGSGGGGSGGGGSDIELTQSPSSLAVSAGEKVAMSCKSSQSLFNSRTRKNYLAWYQQKPGQSPKVLIYWASTRESGVPDRFTGSGSGTDFTLTISSVQAEDLAVYYCKQSYNLPTFGGGTKLEIK
notes: Produced from bacterial periplasm; also called 11D3 ScFv; D3M ScFv; not shown: myc tag fused for detection
